Residue numbers refer to the chain shown, from its start.

Assay [1] has as its target T1, IL-13Rα2, biotinylated (human, UniProt Q14627 27-343, biotinylated (site not stated)).
T1 chain: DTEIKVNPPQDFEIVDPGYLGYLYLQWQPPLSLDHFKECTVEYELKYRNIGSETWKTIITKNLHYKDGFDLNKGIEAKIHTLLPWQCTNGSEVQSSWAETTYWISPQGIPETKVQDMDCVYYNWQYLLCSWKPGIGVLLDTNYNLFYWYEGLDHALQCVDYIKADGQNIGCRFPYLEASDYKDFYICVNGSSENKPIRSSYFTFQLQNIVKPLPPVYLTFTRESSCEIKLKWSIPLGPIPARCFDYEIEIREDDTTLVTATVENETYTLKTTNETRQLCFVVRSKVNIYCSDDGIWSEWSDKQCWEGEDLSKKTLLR
The assay can be described thus: SPR; kinetic.

Assay [2] concerns the target T1, IL-13Rα2, biotinylated. Put plainly: SPR; kinetic. (In general: In SPR one partner is held on a chip, and binding of the other changes the refractive index at the surface.)
Assay [3] addresses T1, IL-13Rα2, biotinylated. The assay can be described thus: SPR; equilibrium.
For a further assay, the target named is A6. Put plainly: SPR; kinetic.
In assay [4] the target is C3. Put plainly: SPR; kinetic.
Assay [5] deals with C7. Put plainly: SPR; kinetic.
In a further assay the target is A7. The assay can be described thus: SPR; kinetic.
Assay [6] concerns the target C10. The assay can be described thus: SPR; kinetic.
The target of assay [7] is C12. The assay can be described thus: SPR; kinetic.
Assay [8] concerns the target C9. Put plainly: SPR; kinetic.
Assay [9] addresses C2. The assay can be described thus: SPR; kinetic.
In another assay the target is A8. The assay can be described thus: SPR; kinetic.
For assay [10], the target named is B6. Put plainly: SPR; equilibrium.
In assay [11] the target is B6. Put plainly: SPR; kinetic.
Assay [12] has as its target C3. The assay can be described thus: SPR; equilibrium.
Assay [13] concerns the target C7. The assay can be described thus: SPR; equilibrium.
The target in assay [14] is C10. The assay can be described thus: SPR; equilibrium.
Assay [15] deals with C12. Put plainly: SPR; equilibrium.
Assay [16] has as its target C9. Put plainly: SPR; equilibrium.
The target of assay [17] is C2. The assay can be described thus: SPR; equilibrium.

B1: IL-13 variant DN (ligand)
chain: PGPVPPSTAVRALIEELINITQNQKAPLCNGSMVWSINRTAGMYCAALESLINVSGCSAIEKTQDMLSGFCPHKVSAGQFSSLHVRSSKIEVAQFVKDLLFHLRTLFREGQFNHHHHHH
In the assay with IL-13Rα2, biotinylated [1], B1 displayed a Kd of 0.391 nM. That is a sub-nanomolar value.

B2: IL-13 variant C11 (ligand)
chain: PGPVPPSTAHRELIEELVNITQNQKAPLCNGSMVWSINLTAGMYCAALESLINVSGCSAIEKTQRMLSGFCPHKVSAGQFSSLHVTGRKIEVAQFVKDLLLHLKKLFKEGQFNHHHHHH
As for B2, the dissociation constant Kd in the assay with IL-13Rα2, biotinylated [2] was found to be 0.0001 nM.

B3: IL-13 variant D7 (ligand)
chain: B2 chain with H10A, V18F, Q64K, S81P, T86K, G87K, R88T, K89R, L101I, K104R
Take B3: binding in the assay with IL-13Rα2, biotinylated [2] was put at a Kd of 0.003 nM. This Kd is about 30-fold higher than that of the molecule before.

B4: IL-13 variant C4 (ligand)
chain: B2 chain with H10V, T86R, G87D, R88T, K89R, L101N, K105E, K108T
Regarding B4, the affinity in the assay with IL-13Rα2, biotinylated [2], expressed as Kd, was 0.393 nM. Compared with the last molecule, the Kd is about 130-fold higher.

B5: IL-13 variant B4 (ligand)
chain: PGPVPPSTALSELIEELINITQNQKAPLCNGSMVWSINPTAGMYCAALESLINVSGCSAIEKTQRMLSGFCPHKVAAGQFSSLHDKGSMIEVAQFVKDLLYHLRTLFREGQFNHHHHHH
Consider B5, for which the Kd with IL-13Rα2, biotinylated [3] amounted to 108 nM.

B6: IL-13 variant A5 (ligand)
chain: B5 chain with S11I, P39L, M43I, A76S, D85V, M89K, Y101H, T105A, F107M
Turning to B6, in the assay with IL-13Rα2, biotinylated [3], binding was put at a Kd of 50 nM.

B7: IL-13 variant B2 (ligand)
chain: B2 chain with H10L, V18I, Q24E, M43I, R88S, L101Y, K104R, K105A, K108R
For the molecule B7, in the assay with IL-13Rα2, biotinylated [2], the Kd turned out to be 1.5 nM.

B8: IL-13 variant A11 (ligand)
chain: B1 chain with A12E, D65R
As to B8, binding in the assay with IL-13Rα2, biotinylated [2] was put at a Kd of 0.391 nM.

B9: IL-13Rα2 (receptor)
chain: T1 chain
modifications: biotinylated (site not stated)
In the case of B9, the Kd amounted to 0.267 nM with A6; 0.379 nM with C3 [4]; 0.272 nM with C7 [5]; 0.218 nM with A7; 5 nM with C10 [6]; 0.053 nM with C12 [7]. The Kd amounted to 0.259 nM with C9 [8], 0.025 nM with C2 [9], 0.263 nM with A8 and 53 nM with B6 [10].

B10: IL-13Rα1 (receptor)
chain: GGGGAAPTETQPPVTNLSVSVENLCTVIWTWNPPEGASSNCSLWYFSHFGDKQDKKIAPETRRSIEVPLNERICLQVGSQCSTNESEKPSILVEKCISPPEGDPESAVTELQCIWHNLSYMKCSWLPGRNTSPDTNYTLYYWHRSLEKIHQCENIFREGQYFGCSFDLTKVKDSSFEQHSVQIMVKDNAGKIKPSFNIVPLTSRVKPDPPHIKNLSFHNDDLYVQWENPQNFISRCLFYEVEVNNSQTETHNVFYVQEAKCENPEFERNVENTSCFMVPGVLPDTLNTVRIRVKTNKLCYEDDKLWSNWSLNDIFEAQKIEWHEHHHHHH
modifications: biotin on the C-terminal biotin acceptor peptide (coexpressed with BirA ligase)
As to B10, the Kd came out at 1.9 nM with A6; 5.9 nM with B6 [11]; 1.18 nM with A7; 2.06 nM with A8; 16000 nM with C3 [12]; 35000 nM in the assay with C7 [13]. Besides, the Kd with C10 [14] stood at 264 nM; with C12 [15] it was 15000 nM; in the assay with C9 [16], 31000 nM; with C2 [17] it was 4000 nM.

In general, Kd refers to the concentration at which binding is half-saturated.
